Experimental data: patent US20120213799A1 (EISAI R AND D MANAGEMENT, published 2012)
Where a chain is given by its changes, count along the chain named.

B1: humanized anti-hFKN mAb H3-2L4-IgG2 (antibody, V domains shown)
VH: QVQLVQSGAEVKKPGASVKVSCKASGYTFTNYYIHWVKQAPGQGLEWIGWIYPGDGSPKFNERFKGRTTLTADKSTNTAYMLLSSLRSEDTAVYFCATGPTDGDYFDYWGQGTTVTVSS
VL: DIQMTQSPSSLSASVGDRVTITCRASGNIHNFLAWYQQKPGKAPKLLIYNEKTLADGVPSRFSGSGSGTDYTLTISSLQPEDFATYFCQQFWSTPYTFGGGTKVEIK
notes: also called H3-2L4 antibody
B2: humanized anti-hFKN mAb H3-2L2-IgG2 (antibody, V domains shown)
VH: B1 VH
VL: B1 VL with L46F, I48V, D70Q
B3: humanized anti-hFKN mAb H3-L4-IgG2 (antibody, V domains shown)
VH: B1 VH with E89D
VL: B1 VL
B4: humanized anti-hFKN mAb H3L2-IgG2 (antibody, V domains shown)
VH: B1 VH with E89D
VL: B1 VL with L46F, I48V, D70Q
B5: mouse anti-hFKN mAb clone 3A5-2 (antibody, mouse IgG2a, V domains shown)
VH: QVQLQQSGPELVKPGASVKMSCKASGYTFTNYYIHWVKQRPGQGLEWIGWIYPGDGSPKFNERFKGKTTLTADKSSNTAYMLLSSLTSEDSAIYFCATGPTDGDYFDYWGQGTTLTVSS
VL: DIQMTQSPASLSASVGETVTITCRASGNIHNFLAWYQQKQGKSPQFLVYNEKTLADGVPSRFSGSGSGTQYSLKINSLQPEDFGIYFCQQFWSTPYTFGGGTKLEIK
notes: Mouse monoclonal from hybridoma; Heavy chain was amplified with a mouse IgG2a CH3 primer and light chain with a mouse Ckappa primer; also called m3A5-2; m3A5-2 mAb
B6: mouse-human chimeric 3A5-2 mAb (antibody, human IgG2, V domains shown)
VH: B5 VH
VL: B5 VL
notes: also called chimeric mAb

How the values were obtained:
[1] = target: T1, recombinant human FKN (R&D Systems, Catalog No. 362-CX/CF) (human, UniProt P78423 25-100); assay: cell-based or functional assay
T1 sequence: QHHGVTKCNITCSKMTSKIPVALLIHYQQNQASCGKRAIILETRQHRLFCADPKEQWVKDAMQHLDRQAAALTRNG

[2] = target: T2, R68A mutated FKN-SEAP-His (human, UniProt P78423 25-340); assay: sandwich ELISA, H3-2L4 coated, mutant hFKN-SEAP added, alkaline phosphatase read at 405 nm
T2 construct: also called R68A mutant; not shown: The SEAP reporter, the residues encoded by the NotI junction and the C-terminal (His)10 tag
T2 sequence: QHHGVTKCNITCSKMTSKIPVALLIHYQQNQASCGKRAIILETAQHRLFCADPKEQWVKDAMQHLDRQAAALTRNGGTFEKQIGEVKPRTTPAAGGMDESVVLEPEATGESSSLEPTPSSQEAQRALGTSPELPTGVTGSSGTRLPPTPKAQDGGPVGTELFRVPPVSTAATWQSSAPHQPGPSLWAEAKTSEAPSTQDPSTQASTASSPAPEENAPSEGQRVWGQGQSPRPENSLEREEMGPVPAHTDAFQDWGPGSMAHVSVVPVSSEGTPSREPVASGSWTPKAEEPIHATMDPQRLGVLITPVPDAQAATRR
Procedure: Mouse anti-human FKN monoclonal antibodies (1F3, 1G1, 2B2, 3D5, 6D1, 7F6) and H3-2L4 antibody were coated on an ELISA plate (Nunc) overnight at 4° C. The antibody solutions were removed. PBS solution containing 1% BSA was added to each well and incubated for 1 hour at room temperature, and the wells were washed with Tris-buffered saline (pH 7.4) containing 0.05% Tween 20. The wild type and R68A mutated FKN-SEAP-His solution (1, 0.5, 0.25, 0.125 nM) were added to the wells and incubated for 2 hours at room temperature. The antigen solutions were removed and washed with washing solution. p-Nitrophenyl phosphate solution (Thermo Scientific) was added to each well and incubated for 30 minutes at room temperature. The reaction was terminated with 1N NaOH solution and absorbance at 405 nm was measured.

[3] = target: T3, soluble hFKN-SEAP (extracellular region of human fractalkine conjugated to secreted alkaline phosphatase) (human, UniProt P78423 25-341); assay: BIACORE, mAb captured by anti-human IgG, FKN-SEAP as analyte
T3 construct: Used as culture supernatant of HEK293E cells; also called soluble FKN conjugated to SEAP; not shown: secreted alkaline phosphatase (SEAP) from the vector pcDNA3.1 (+) dSalI SEAP
T3 sequence: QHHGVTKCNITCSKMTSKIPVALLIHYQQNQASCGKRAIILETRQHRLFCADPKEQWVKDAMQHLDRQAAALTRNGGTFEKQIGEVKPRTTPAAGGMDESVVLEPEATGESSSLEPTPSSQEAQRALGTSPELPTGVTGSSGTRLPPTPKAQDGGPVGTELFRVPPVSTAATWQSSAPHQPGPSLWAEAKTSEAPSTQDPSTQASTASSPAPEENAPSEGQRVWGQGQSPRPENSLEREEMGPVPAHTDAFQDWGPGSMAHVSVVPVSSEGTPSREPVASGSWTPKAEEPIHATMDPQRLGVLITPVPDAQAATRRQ
Procedure: (§1) BIACORE® assays were performed as follows. Recombinant Protein-A/G (Pierce Chemical) was immobilized on BIACORE® sensor chips (CM5) that were pre-activated with amine coupling reagents (GE Healthcare). Purified mAbs were added into the sensor chips at a concentration of 0.2 μg/ml. Soluble antigens (soluble FKN conjugated to secreted alkaline phosphatase (SEAP) or control SEAP proteins) were added into the sensor chips at various concentrations (0 to 200 nM). Association of added antigens with mAbs captured on the sensor chips was monitored continuously, and the relative binding response of the antigens was determined using a BIACORE® A100 system (GE Healthcare).
The BIACORE® assays were performed as described above. However, for humanized and chimeric mAbs, anti-human IgG mouse mAb (GE Healthcare) was used as the capturing antibody on the sensor chip.

[4] = target: T3, soluble hFKN-SEAP (extracellular region …); assay: BIACORE, mAb captured on Protein-A/G, soluble FKN-SEAP as analyte (also ELISA on captured hFKN-SEAP)
Procedure: as §1
ELISAs were performed as follows. Polyclonal anti-rabbit IgG antibody (Jackson ImmunoResearch Laboratories, Catalog No. 711-005-152) was coated on the wells of a 96-well plate (Nunc, Catalog No. 442402). After overnight incubation at 4° C., the wells were blocked with 1× Block-Ace (DainipponPharma) for 1 hour at room temperature. After washing three times with 0.05% Tween 20/PBS, 10 nM rabbit polyclonal anti-PLAP antibody (Biomeda) was added to the wells (50 μl/well). […] An equal volume of stopping solution (2 M H₂SO₄) was added to the wells and the optical density at 450 nm was read by a microplate reader (Arvo, PerkinElmer).

Row | Binder | binding result [3] | other results
1 | B1 |  | CTX (IC50, nM) [1]: 0.2 nM; binding result [2]: no binding (tested: 0.13 nM)
2 | B2 | binds | 
3 | B3 | binds | 
4 | B4 | binds | 
5 | B5 |  | binding result [4]: binds
6 | B6 | binds | 
